Results on 53 sequences are retold here after the supplement of paper PMC11780869.

The data set deals with Bacillus subtilis. Kind of data set: cleaved RNA product abundance (RNA/gDNA barcode ratio) relative to median wild-type variant (ratio to wild type); higher = more accumulation of the downstream cleavage product. In short, it runs like this: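 The B. subtilis chromosome carried reporter mRNAs, truncated aprE or tetM, containing barcoded RNase Y cleavage-site windows mutagenized using oligos with a 9% error rate. After growth in LB at 37°C from OD600 0.0003 to 0.3, cleaved RNA was gel-selected, reverse transcribed and barcode-sequenced next to genomic DNA barcodes, with UMI collapsing. Each construct's RNA:gDNA barcode ratio was scaled to the median construct with the unmutated site. That scaled ratio is reported as cleaved product abundance.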

The mark [1] stands for this setting: experiment (reporter, strain, medium): exp 2b: truncated aprE reporter, strain BJT200, cleavage site: cggR-gapA (positions -7 to +36 mutated).
[2] abbreviates: experiment (reporter, strain, medium): exp 4a: truncated aprE reporter, strain BJT201 with 2% xylose (RNase J1 expressed), cleavage site: cggR-gapA (positions -7 to +36 mutated).
The mark [3] stands for this setting: experiment (reporter, strain, medium): exp 6: tetM reporter, strain 168, cleavage site: cggR-gapA (positions -7 to +36 mutated).
The mark [4] stands for this setting: experiment (reporter, strain, medium): exp 8a: truncated aprE reporter, strain BJT201 with 2% xylose (RNase J1 expressed), cleavage site: glnRA (positions -5 to +31 mutated).

As to “ACAGACGAAGGAGCCGCAAAGAAGTTATTAAGGTATGAATAATCCCTCAATATAAATCTCTCTCACTTATTTAAA”, under setting [1], the “cleaved RNA product abundance” value was 0.0874. “ACAGACGAAGGAGCCGCAAAGAAGTAATTAAGCGATGAATAATCCCTCAATATAAATATCTCTCACTTATTTAAA”: under setting [2], the “cleaved RNA product abundance” value was 0.157. Same read-out and setting: the same measure for “ACAGACGAAGGAGCCGCAAAGAAGTTATTAAAGGATGCATAATCCCTCAATATAAATATCTCTCACTTATTTAAA”: 0.312. For the sequence “ACAGACGAAGGAGCCGCAAAGAAGTTATTAAGGGATGAATAATCACTCAATATAAATATCTCTCACTTATTTAAA”, the “cleaved RNA product abundance” value by setting is: under setting [1], 0.111; under setting [2], 0.14; under setting [3], 0.0875. Consider “ACAGACGAAGGAGCCGCAAAGAAGTTATTAAGGGATGCATAATCCCTCAATATAAATATCTCTCACTTATTTAAA”, for which the “cleaved RNA product abundance” value by setting is: under setting [1], 0.856; under setting [2], 0.844; under setting [3], 1.15.

Take “CGACATGTCCCGCTTCTTTCATTATTCCGTTAGCAAGTGTTTTGCTATATACATTTACCTTTTAAGAGGAGGAAT”: the “cleaved RNA product abundance” value under setting [4] is 1.46. As for “ACAGACGAAGGAGCCGCACAGAATTTATTAAGGGATGAATAATCCCTCAATATAAATATCTCTCACTTATTTAAA”, the “cleaved RNA product abundance” value reads like this: under setting [1], 0.544; under setting [2], 0.488.

As for “CGACATGTCCCGCTTCTTTCATTAATCCGTTAGCAAATGTTTTGCTATATACAATTACCTTTTAAGAGGAGGAAT”, the “cleaved RNA product abundance” value under setting [4] was found to be 1.76. In the case of “CGACATGTCCCGCTTCTTTCATTAATCCGTTAGCAAATGTTTTGCTATATACTTTTACCTTTTAAGAGGAGGAAT”, under setting [4], the “cleaved RNA product abundance” value amounted to 1.13. Turning to “ACAGACGAAGGAGCCGCAAAGAAGTGATTAAGGGATGAATTATCCCTCAATATAAATATCTCTCACTTATTTAAA”, the “cleaved RNA product abundance” value under setting [2] turned out to be 0.366.

“CGACATGTCCCGCTTCTTTCATTAATTCGTTTGCAACTGTTTTGCTATATACATTTACCTTTTAAGAGGAGGAAT”: the “cleaved RNA product abundance” value under setting [4] was 0.815.

In the case of “ACAGACGAAGGAGCCGCAAAGAAGTTATTAAGGCATGAATAATCCCTCAATATAAAAATCTCTCACTTATTTAAA”, the “cleaved RNA product abundance” value under setting [2] came to 0.0882. As for “ACAGACGAAGGAGCCGCAAAGAACTTATTAAGGGATGAATAAACCCTCAATATAAATATCTCTCACTTATTTAAA”, the “cleaved RNA product abundance” value by setting is: under setting [1], 0.224; under setting [2], 0.265.

As for “ACAGACGAAGGAGCCGCAAAGGAATTATTAAGGGATGAATAATCCCTCAATATAAATATCTCTCACTTATTTAAA”, the “cleaved RNA product abundance” value under setting [2] is 0.671. Consider “ACAGACGAAGGAGCCGCATAGAAGTTATTAAGGGATTAATAATCCCTCAATATAAATATCTCTCACTTATTTAAA”, for which the “cleaved RNA product abundance” value runs as follows: under setting [1], 1; under setting [2], 1.38. As for “ACAGACGAAGGAGCCGCAAAGAAGTTATTAAGGAATGAATAATCCCTCAATATACATATCTCTCACTTATTTAAA”, under setting [2], the “cleaved RNA product abundance” value was found to be 0.118. With “ACAGACGAAGGAGCCGCAAAGACGTTATTAAGGGATGAATAATCCCTCAACATAAATATCTCTCACTTATTTAAA”, under setting [2], the “cleaved RNA product abundance” value was determined as 0.316. On to “CGACATGTCCCGCTTCTTTCATTAATCAGTTAGCAACTGTGTTGCTATATACATTTACCTTTTAAGAGGAGGAAT”, for which, under setting [4], the “cleaved RNA product abundance” value stood at 0.251. “ACAGACGAAGGAGCCGCAAAGAAGTTATTAAGGGATGAATAATCCCTCAATTTAAATGTCTCTCACTTATTTAAA”: the “cleaved RNA product abundance” value under setting [2] is 0.048. For “ACAGACGAAGGAGCCGCAAAGAAGTTATTAACGGACGAATAATCCCTCAATATAAATATCTCTCACTTATTTAAA”, the “cleaved RNA product abundance” value is, setting by setting: under setting [1], 0.0519; under setting [2], 0.0823. As for “CGACATGTCCCGCTTCTTTCATTAATCCGTTAGCAACTCTTTTTCTATATACATTTACCTTTTAAGAGGAGGAAT”, under setting [4], the “cleaved RNA product abundance” value was 0.642.

For “CGACATGTCCCGCTTCTTTCATTAATCCGTTAGCAACTGTTTTGCTATATACCTTAACCTTTTAAGAGGAGGAAT”, the “cleaved RNA product abundance” value under setting [4] stood at 0.281. “ACAGACGAAGGAGCCGCAAAGGAGTTATTAATGGATGAATAATCCCTCAATATAAATATCTCTCACTTATTTAAA”: the “cleaved RNA product abundance” value under setting [2] was found to be 0.114. As for “ACAGACGAAGGAGCCGCAAAGAACTTTTTAAGGGATGAATAATCCCTCAATATAAATATCTCTCACTTATTTAAA”, the “cleaved RNA product abundance” value under setting [1] stood at 0.204. As to “CGACATGTCCCGCTTCTTTCATTAATCCGTTAGCAAATTTTTTGCTATATACATTTACCTTTTAAGAGGAGGAAT”, under setting [4], the “cleaved RNA product abundance” value amounted to 1.19. “ACAGACGAAGGAGCCGCAAAGAAGTTATTAATGGATGAATAATCACTCAATATAAATATCTCTCACTTATTTAAA”: the “cleaved RNA product abundance” value by setting is: under setting [1], 0.106; under setting [2], 0.141. Regarding “ACAGACGAAGGAGCCGCAAACAAGTTATTAAGGGATGAACAATCCCTCAATATAAATATCTCTCACTTATTTAAA”, the “cleaved RNA product abundance” value under setting [2] was found to be 0.451. Turning to “CGACATGTCCCGCTTCTTTCATTAATCCGTGAGCAACTGTTTAGCTATATACATTTACCTTTTAAGAGGAGGAAT”, under setting [4], the “cleaved RNA product abundance” value was 0.335. For the sequence “ACAGACGAAGGAGCCGCAAAGAAGTAATTAAGGGTTGAATAATCCCTCAATATAAATATCTCTCACTTATTTAAA”, the “cleaved RNA product abundance” value runs as follows: under setting [1], 0.0812; under setting [2], 0.162. On to “CGACATGTCCCGCTTCTTTCATTAATCCGTTAGCTGCTGTTTTGCTATATACATTTACCTTTTAAGAGGAGGAAT”, for which the “cleaved RNA product abundance” value under setting [4] turned out to be 0.658. With “CGACATGTCCCGCTTCTTTCATTATTCCGTTAGCAACTGTTTTGCTATCTACATTTACCTTTTAAGAGGAGGAAT”, the “cleaved RNA product abundance” value under setting [4] came to 0.167.

Take “ACAGACGAAGGAGCCGCAAAGAAGTTATTAAGGGAAGAATAATCCCACAATATAAAAATCTCTCACTTATTTAAA”: the “cleaved RNA product abundance” value under setting [2] stood at 0.118. As for “ACAGACGAAGGAGCCGCAAAGAAGTTATTAAGGGATGAATAATCTCACAATATAAATATCTCTCACTTATTTAAA”, the “cleaved RNA product abundance” value reads like this: under setting [1], 0.18; under setting [2], 0.262. In the same order, the values of “ACAGACGAAGGAGCCGCAAAGAAGTGATTAAGTGATGAATAATCCCTCAATATAAATATCTCTCACTTATTTAAA” are 0.114 and 0.0876. Regarding “ACAGACGAAGGAGCCGCAAAGAAGTTATTAAAGGATGAATAATCCCACAATATAAATATCTCTCACTTATTTAAA”, the “cleaved RNA product abundance” value was 0.113 under setting [1] and 0.173 under setting [2]. For “ACAGACGAAGGAGCCGCAAAGAAGTTAATAAGGGATGAATAATCCCTCAATATAAACATCTCTCACTTATTTAAA”, the “cleaved RNA product abundance” value under setting [2] was 0.338. In the case of “CGACATGTCCCGCTTCTTTCATTAATCCGTTAGCAAATGTTTTGCTATATACATTTACCCTTTAAGAGGAGGAAT”, the “cleaved RNA product abundance” value under setting [4] was 0.852. Consider “ACAGACGAAGGAGCCGCAAAGAAGTTATTAGGGTATGAATAATCCCTCAATATAAATATCTCTCACTTATTTAAA”, for which the “cleaved RNA product abundance” value under setting [2] was 0.361. For the sequence “CGACATGTCCCGCTTCTTTCATTAATCCGATAACAACTGTTTTGCTATATACATTTACCTTTTAAGAGGAGGAAT”, the “cleaved RNA product abundance” value under setting [4] turned out to be 0.201. With “CGACATGTCCCGCTTCTTTCATTAATCGGTTAGCAACTGTTTTGCTATATACATTTACCTTTTAAGAGGAGGAAT”, under setting [4], the “cleaved RNA product abundance” value stood at 0.613. Regarding “ACAGACGAAGGAGTCGCAAAGAAGTTATTAAGGGATGAATAATCCCTCAATATAAATATCTCTCACTTATTTAAA”, the “cleaved RNA product abundance” value under setting [3] was determined as 1.46.

As for “ACAGACGAAGGAGCCGCAAATAAGTTATTAAGGGTTGAATAATCCCTCAATATAAATATCTCTCACTTATTTAAA”, the “cleaved RNA product abundance” value is, setting by setting: under setting [1], 0.425; under setting [2], 0.423. Regarding “ACAGACGAAGGAGCCGCAAAGAAGTTATTAATGGATGAATAACCCCTCAATATAAATATCTCTCACTTATTTAAA”, the “cleaved RNA product abundance” value under setting [1] came out at 0.0893 and the “cleaved RNA product abundance” value under setting [2] was found to be 0.0925. In the case of “CGACATGTCCCGCTTCTTTCATTAATCCGTTAGCAACCGTTATGCTATATACATTTACCTTTTAAGAGGAGGAAT”, under setting [4], the “cleaved RNA product abundance” value is 0.316.

On to “CGACATGTCCCGCTTCTTTCATTAATCCGTTAGCAAGTGTTTTGCTATATAAATTTACCTTTTAAGAGGAGGAAT”, for which the “cleaved RNA product abundance” value under setting [4] turned out to be 0.803. In the case of “ACAGACGAAGGAGCCGCAAAGAAGTTATTAAGGGATGAATAATCCCGCAATATAAATATCTCTCACTTATTTAAA”, the “cleaved RNA product abundance” value under setting [1] was 0.194, the “cleaved RNA product abundance” value under setting [2] amounted to 0.244 and the “cleaved RNA product abundance” value under setting [3] was 0.252. On to “ACAGACGAAGGAGCCGCAAAGAAATTATTAAGGGATGAATAATAACTCAATATAAATATCTCTCACTTATTTAAA”, for which, under setting [2], the “cleaved RNA product abundance” value was determined as 0.168. Consider “CGACATGTCCCGCTTCTTTCATTATTCCGTTAGCAACTGTTTAGCTATATACATTTACCTTTTAAGAGGAGGAAT”, for which the “cleaved RNA product abundance” value under setting [4] was 0.706.

On to “ACAGACGAAGGAGCCGCAAAGAAGTTATTAAGAGATGAATAATCCCACAATATAAATATCTCTCACTTATTTAAA”, for which the “cleaved RNA product abundance” value is 0.0945 under setting [1] and 0.1 under setting [2]. For “ACAGACGAAGGAGCCGCAAAGAAGTTATTAAGGGATGAATAATTCCTGAATATAAATATCTCTCACTTATTTAAA”, the “cleaved RNA product abundance” value under setting [2] was 0.471.

On to “CGACATGTCCCGCTTCTTTCATTAATCCGGTAGCAACTGTTTTGCTAGATACATTTACCTTTTAAGAGGAGGAAT”, for which the “cleaved RNA product abundance” value under setting [4] was determined as 0.545. With “CGACATGTCCCGCTTCTTTCATTAATCCGTTAGCAACTGTTTTACTATATACATCTACCTTTTAAGAGGAGGAAT”, under setting [4], the “cleaved RNA product abundance” value was found to be 0.506. Take “CGACATGTCCCGCTTCTTTCATTAATCTATTAGCAACTGTTTTGCTATTTACATTTACCTTTTAAGAGGAGGAAT”: the “cleaved RNA product abundance” value under setting [4] is 0.311.
